# Experiment: soluble on expression in E. coli; label from the status in PepcDB or PDB records
row,Sequence,soluble on expression in E. coli
1,MEAESAPQAPMSGGRVLKMVTEMGSATVGGISPALSANAAKSFLEATDKEKKTLQGLNDRLGNYIDRVKKLEEQNRKLVADLDELRGKWGKDTSEIKIKYSESLSTARKDIDDAARRKAEVDVKVARHRDDLAEYRSRYEDIQQRRESDREKISQWTNAIADAQSEVEMLRARFKQLTDEEKRVTADNSRIWEELQKARSDLDDETIGRIDFQNQVQTLMEELEFLRRVHEQEVKELQALLAQAPADTREFFKNELALAIRDIKDEYDIIAKQGKQDMESWYKLKVSEVQGSANRANMESTYQRDEVKRMRDNIGDLRGKLGDLENKNSLLEKEVQNLNYQLTDDQRQYEAALNDRDATLRRMREECQTLVAELQALLDTKQMLDAEIAIYRKMLEGEETRVGLTQMVEQAVKTHSLQQQENTDSTRSVRGEVSTKTTFQRSAKGNVTISECDPNGKFIKLENSHRNKDENVGEHKIRRKLDGRREIVYSIPANVVIKPGKNLTIYARDQGGINNPPESLVFDGENTWGIGANVVTSLVNKDGEERATHTQKTIQSGQ,not soluble
2,MEAESLADSGFPLEVFPQKMQSIIIDMVVHGNFKVDYVAMSMLSAASAALGNTYRIHVKQDWDTNAALYIILVGRPGMGKTPPLQLAYKPIREYERKLFDKFCHELDLYEAACATKESGSKEMKKPILKRVTLDDFTLEALVLEHYNNLRGIAINYDEILGLLANTDRYGKNPMLERLLSIWSGCHLENTRVKNDRPQRVEEPCVNIIGTTQTKRMKELMASKFMDTGFLDRILVVYPKSKKVPHWLDEEDSHVRQSEASRKWADIIGKIFGLDYARCNDTNECCPNILYMDKDAHSLFFGWWNRNVDAINAIEDDEDVETRVMKHNTHVARIALLLQALRYACGESHLQSIDVDSIEGALRLNEYCENCYQRCRAFVAEDTCDSMSKELLYLLEDSFDTKTAIKTGMENLHVTDRTVMNYIKELMKSGLITKAKKGFYEKVKFETGQATET,not soluble
3,MEALILEPSLYTVKAILILDNDGDRLFAKYYDDTYPSVKEQKAFEKNIFNKTHRTDSEIALLEGLTVVYKSSIDLYFYVIGSSYENELMLMAVLNCLFDSLSQMLRKNVEKRALLENMEGLFLAVDEIVDGGVILESDPQQVVHRVALRGEDVPLTEQTVSQVLQSAKEQIKWSLLR,not soluble
4,MEAQNRIEDHGIIGDMRSAALIADTGSIDFCCWPDFDSPSIFTALLDTPDAGIFQLAPDLPDARRLQIYLPDTNVLQTRWIAEQAVVEVTDLMPIGEDQDDLPRIVRRVQVRFGEATIRMRCRVRMDYSRALEHHHHHH,not soluble
5,MEDEIKSFEKDRNLIIEDSKNSKNNIVDVQKLIEALKDEKNAKNIVVDFTEYNPLHNGHKYCMDFGKSEGLFISVIPGPLERSGRGIPYLVNRHIRAEMALLAGADLVVEGPPMGIMGSGQYMQCLIKIFSALNGDIIPRGYIEEETMERVINSINNGNHIKIKPYNISCIETREKLGEKLEIDNYVIASMSYTIYKLKENFPKWNPKFKFIERIEGISGTKIREGVFNNNFESIKHMLPITTIDVFKNFGDNLSEIILKRNEEMVLDTVNNFDLNKYLPENISEKLNEKEYYESIEEIKEYIPRGFSKNNIERTISKLEARIEKETISKYIENYPANLRILNGINNHE,not soluble
6,MEDIKIKEIFENIYEVDLGDGLKRIATKSIVKGKKVYDEKIIKIGDEEYRIWNPNKSKLAAAIIKGLKVMPIKRDSKILYLGASAGTTPSHVADIADKGIVYAIEYAPRIMRELLDACAERENIIPILGDANKPQEYANIVEKVDVIYEDVAQPNQAEILIKNAKWFLKKGGYGMIAIKARSIDVTKDPKEIFKEQKEILEAGGFKIVDEVDIEPFEKDHVMFVGIWEGK,soluble
7,MEDLYPSRQNNQPKILKRKDPVIYTDRSKDNQAPITKEQLDSYEKNGFLQIKNFFSEDEVIDMQKAIFELQDSIKDVASDKVIREPESNDIRSIFHVHQDDNYFQDVANDKRILDIVRHLLGSDVYVHQSRINYKPGFKGKEFDWHSDFETWHVEDGMPRMRAISVSIALSDNYSFNGPLMLIPGSHNYFVSCVGETPDNNYKESLKKQKLGVPDEESLRELTRIGGGISVPTGKAGSVTLFESNTMHGSTSNITPYPRNNLFMVYNSVKNRLVEPFSGGEKRPEYIAVREKQPVYSAVNSAWSHPQFEK,soluble
8,MEDYEGKFSPSELKLKGIHTSTTFWTVGMIVQQYKNGHLVIPKIQRGYVWNEEKARRFIMSLLQGFPIPPIFIIELSGKFYVVDGQQRIRTILWFLGEDNELLEKLGPLRVPIKELAENYNEYGVTNLSEAIIKKIIFGNHPKEFNYKYFTKDFRQYFESLSIPVQHISISSGKEYILTDIFLRINQGSVKLSAMELWRVYYGKDIEEYFHKLNELARYTVAKIYEVSNGKISRQKLERFRIDEFILTFDVLINGLITPPNYIPKDAKLGAVIFSQKTTLKKVKIFVLENRRKVFKNNKGELKKFLDYLEREYKEILKMITYVLGEFTFRRPTIGNECQYALIRPSGNDINEAVFLYEVAIFKLLKDNGHSELIYENKDFIKHVILTSLIENDELFSRSTSTFRSVANKLELAKLTYKKIITKEDNITKDNLKRLLYEKFRASRVSNPVCPYCKEPISDISVADLAHIRPLAFGGQTYIHNLTLAHSTCNRRFGVRDISQYINRC,soluble
9,MEEDNQQDQNNQYVIYHPFFSEGCHFYFIISCTNSFIRVALKIGLIGDSQIGKTSLMVKYVEGSFDEDYIQTLGVNFMDKKIQIRNTTITFSIWDLGGQKEFINMLPLVSNDAVAILFMFDLTRKSTLNSIKEWYRQVRGFNKTAIPFLVGTKYDQFIDLSFQDQIEITQQAKKFGSAMKAPVIFCSTSHSINVQKIFKIILSKAFDLKLNLDEIVNVGEPILIYK,not soluble
10,MEEKTILAQILQVLDLYAADMRKQFEALHEKFDSLQRQVQALNEKTDEMDKRIEEMDGRFERQIAQLERTVNERFERLEAKLGHIRVELVETQETVDFHSVKIAQHDRKIRHLLHAR,not soluble
11,MEESPTKTFKCPKCWNKFENKPKLITHVDLECKHKYFRCELCDFKSTQKTGLTSHYHGHIRQSNVIHCPYCKKKKTFKSRNNLMVHVHHYHPTHINEMKQANLESAKEEKMKTMLEKQAKEAHEFEISQPAVFEKDFASYDLPMFSQCPPMNGIPVSTPIEYPYSQNPYQDHTPFDSYPYPNFHPQQLPLPTFENNLPDIATYFDL,not soluble
12,MEFDKLYGPSNVENRLVQVKATTAEAIHFNRQIQPIIENRCVVCHGCYDAPCQLKMESRAGIERGANKAMVYNGERLLTANISASLTKLTELKRDNLEPLRQQGYFPVLNERQQTEQANTQSSLFYQMLQLKKQHPLPSEPILNESFDVALDRSQQCPTIEEFEQYKDKYPLGGMPYALPALSTTEHDQLTDWIARGAIMPDSVPPNAKEQQMINRWEKLLNGSSAKEQLIARYLFEHLYLANLYFDKAQSSYFKLVRSSSPSGEKVAVITTRRPFDSPYADGSTDAIVDKPQVYYRLIKHNDTIIAKRHMPYPFGESKLARISELFYQPDYPVTTLPDYQLANASNPFKTFQAIPDKARYQFLLDQAQFSIMNFIKGPVCRGQIALNVIEDNFWVFFLSPNNFDHYPSEQFIKANTELLQLPAGTSDKSLSLLYWRQYAKSQQEYVKNKLAYVEGLNLQPNQLNLDLIWSGKGNPNASLTVFRHFDSASVLQGFVGPTPKTAWLISYPLLERIHYLLVAGFDVYGSVSHQLKTRLYMDFLRMEAESNFISFLPKDERKAIHEYWYRETGDDIKDYIFSDGFYQLPETGMNYQSNKHQEELFQLVGQHTKNTNVSQFNLSSLAQSSADKIIANLSQLPNESVALLPQVSYVMVSNGDDNQVYSLINNSAHSNVAHLFSEENRRLPREDNLAILRGVVGTYPNAFFKVEQAQLSEFVSNLNAIKTEQDYRKLKDQFAIRRTNPKFWIFADELHAWYKTNQPKSAGLLDFNRLENRLEHHHHHH,not soluble
13,MEFKNTKKDRLSDLENRFENANKHETNKHEKEDRKKAHTLYISEKVMNSVEEYLNEFGAFRENKSVFVQDAIIFYLEYKKKEMKQMLLDKASKL,not soluble
14,MEFTGKIIAILPPRGGVSKTSGNEWKSQEFVIENHDQYPRKMCFDVFGADKIEQFNIQMGEELTVSFDVDARQWNDRWFNSIRAWKVERVGAGAPMTPGAPVPPPAPSATPDFTMGDAKDDLPF,not soluble
15,MEGGSITPGEDKPEIQSPIPPNQIFILSGQSNMAGRGGVFKDHHNNRWVWDKILPPECAPNSSILRLSADLRWEEAHEPLHVDIDTGKVCGVGPGMAFANAVKNRLETDSAVIGLVPCASGGTAIKEWERGSHLYERMVKRTEESRKCGGEIKAVLWYQGESDVLDIHDAESYGNNMDRLIKNLRHDLNLPSLPIIQVAIASGGGYIDKVREAQLGLKLSNVVCVDAKGLPLKSDNLHLTTEAQVQLGLSLAQAYLSNFC,soluble
16,MEGMKGAVLITGASRGIGEATARLLHAKGYRVGLMARDEKRLQALAAELEGALPLPGDVREEGDWARAVAAMEEAFGELSALVNNAGVGVMKPVHELTLEEWRLVLDTNLTGAFLGIRHAVPALLRRGGGTIVNVGSLAGKNPFKGGAAYNASKFGLLGLAGAAMLDLREANVRVVNVLPGSVDTGFAGNTPGQAWKLKPEDVAQAVLFALEMPGHAMVSEIELRPTRPTSGPR,soluble
17,MEGVQEVEIDAPLSGWHPAEGEDASFSQSINYPASSVNMADDQNISAQIRGKIKNYAAAGKVQQGRLVVNGASMPQRIESDGSFARPYIFTEGSNSVQVISPDGQSRQKMQFYSTPGTGTIRARLRLVLSWDTDNTDLDLHVVTPDGEHAWYGNTVLKNSGALDMDVTTGYGPEIFAMPAPVHGRYQVYINYYGGRSETELTTAQLTLITDEGSVNEKQETFIVPMRNAGELTLVKSFDWLEHHHHHH,soluble
18,MEHRPVLETESNLVITLVADIVAAYVSNNSIRPTEVPSLIADVHAAFRKAGNADLTEVEVEKQRPAVNPKRSIFPDYLICLEDGKKFKSLKRHLMTHYGMLPEEYREKWQLDSSYPMVAPNYAKARSALAKEMGLGRKSKRKKTK,not soluble
19,MEIIFYHPTFNAAWWVNALEKALPHARVREWKVGDNNPADYALVWQPPVEMLAGRRLKAVFVLGAGVDAILSKLNAHPEMLDASIPLFRLEDTGMGLQMQEYAVSQVLHWFRRFDDYQALKNQALWKPLPEYTREEFSVGIMGAGVLGAKVAESLQAWGFPLRCWSRSRKSWPGVESYVGREELRAFLNQTRVLINLLPNTAQTVGIINSELLDQLPDGAYVLNLARGVHVQEADLLAALDSGKLKGAMLDVFSQEPLPQESPLWRHPRVAMTPHIAAVTRPAEAIDYISRTITQLEKGEPVTGQVDRARGY,not soluble
20,MEIIHLSEIDSTNDYAKELAKEGKRNFIVLADKQNNGKGRWGRVWYSDEGGLYFSMVLDSKLYNPKVINLLVPICIIEVLKNYVDKELGLKFPNDIMVKVNDNYKKLGGILTELTDDYMIIGIGINVNNQIRNEIREIAISLKEITGKELDKVEILSNFLKTFESYLEKLKNKEIDDYEILKKYKKYSITIGKQVKILLSNNEIITGKVYDIDFDGIVLGTEKGIERIPSGICIHVR,soluble
21,MEIKPTPSPPEERTIYVANFSEEVDEELLEELFIQAGPVVKVILRDVRDSNAKFALVEFEDELSVLFAIELMNGVRLFNQELQVKPRNGTNQEELYKRKKGEIEERVRSVAAPDRDGRRDSYRDDRNRNRNGNNRDSWQQQQPPRHHRQYDPLPPPPPPPLMGGSGGHWRSGGERGPPQYSTPQMLPHQHFVNQMMQQQINRSAPPYNGRHQNSTPHRHHDRHGYDRSSSRHHRNDDRRRSAHFLDIRKFQAPPTSWAFGNFQCFFWNLFSKITYLQEVGGA,not soluble
22,MEILTLEQQKSFIKAIDGHKLEVLFLLALGTGLRLGELLGLKWFDIDFKKSNLTVKRTLQRTYFIDKTGNRELKVLEQGPKTSNSYRTVPIPKDVLNKLKEHKVNQNTDILKAGELYINNNYVFCNELGIPIDDKRPLRNLKSILNSLNIEPIKFHGLRKTYATRLFENDVPPKTVQVLMGHYDISITLNIYTQVMEDKKVEAVEKLDKIFSLEHHHHHH,soluble
